Patent US9156883B2, “Binding molecules for human factor VIII and factor VIII-like proteins” (DYAX CORP., priority 1999, dated 2015)
Positions of bridges follow the written chain, without caps; N, C: chain ends. No end group written: not given here. *: point of attachment. NHNH2 = NN*

target: T1, native human factor VIII (nhfVIII) (Homo sapiens, UniProt P00451); assay: Comparative batch binding and elution of nhfVIII with immobilized polypeptide ligands; settings: batch procedure
T1 construct: native human factor VIII (nhfVIII); purchased American Diagnostica, Inc. (Greenwich, Conn.) #408 nat
T1 sequence (P00451 20-1332 limits assumed): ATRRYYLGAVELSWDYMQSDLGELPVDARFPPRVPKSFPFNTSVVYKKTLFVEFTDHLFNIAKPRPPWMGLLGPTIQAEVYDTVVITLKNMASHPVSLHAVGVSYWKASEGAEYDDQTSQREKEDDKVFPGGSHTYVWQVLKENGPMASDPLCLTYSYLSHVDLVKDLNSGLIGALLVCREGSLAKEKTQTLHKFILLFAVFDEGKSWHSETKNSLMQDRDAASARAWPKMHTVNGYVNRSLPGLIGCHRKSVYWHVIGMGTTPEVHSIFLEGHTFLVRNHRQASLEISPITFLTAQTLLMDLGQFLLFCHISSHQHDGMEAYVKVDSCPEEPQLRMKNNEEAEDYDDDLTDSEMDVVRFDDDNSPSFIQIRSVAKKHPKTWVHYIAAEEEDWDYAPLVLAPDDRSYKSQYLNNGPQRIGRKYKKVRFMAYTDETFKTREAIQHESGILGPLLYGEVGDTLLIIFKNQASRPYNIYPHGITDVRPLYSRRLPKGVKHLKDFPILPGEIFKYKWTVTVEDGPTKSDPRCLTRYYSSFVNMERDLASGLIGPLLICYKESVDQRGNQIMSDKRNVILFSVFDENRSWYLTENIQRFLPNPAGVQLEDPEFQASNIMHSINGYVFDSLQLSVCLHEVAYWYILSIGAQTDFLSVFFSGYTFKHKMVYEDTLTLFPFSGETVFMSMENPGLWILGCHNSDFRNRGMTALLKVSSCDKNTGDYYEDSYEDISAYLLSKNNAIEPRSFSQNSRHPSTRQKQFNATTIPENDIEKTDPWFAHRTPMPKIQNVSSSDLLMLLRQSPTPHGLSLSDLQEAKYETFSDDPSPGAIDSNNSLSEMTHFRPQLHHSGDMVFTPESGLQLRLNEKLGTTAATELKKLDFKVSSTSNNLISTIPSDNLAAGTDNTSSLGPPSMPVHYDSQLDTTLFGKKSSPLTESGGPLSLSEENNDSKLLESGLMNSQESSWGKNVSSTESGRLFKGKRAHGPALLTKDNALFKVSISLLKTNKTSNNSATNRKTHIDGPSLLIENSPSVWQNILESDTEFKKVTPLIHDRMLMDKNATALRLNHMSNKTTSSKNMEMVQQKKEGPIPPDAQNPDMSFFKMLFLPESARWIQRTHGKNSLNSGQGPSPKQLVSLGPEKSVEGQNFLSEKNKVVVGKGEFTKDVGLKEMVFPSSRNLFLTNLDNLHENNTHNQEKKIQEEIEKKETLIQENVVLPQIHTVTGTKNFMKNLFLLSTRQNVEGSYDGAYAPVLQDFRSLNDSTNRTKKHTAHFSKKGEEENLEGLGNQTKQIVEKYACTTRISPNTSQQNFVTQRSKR
T1 sequence (P00451 1668-2351 limits assumed): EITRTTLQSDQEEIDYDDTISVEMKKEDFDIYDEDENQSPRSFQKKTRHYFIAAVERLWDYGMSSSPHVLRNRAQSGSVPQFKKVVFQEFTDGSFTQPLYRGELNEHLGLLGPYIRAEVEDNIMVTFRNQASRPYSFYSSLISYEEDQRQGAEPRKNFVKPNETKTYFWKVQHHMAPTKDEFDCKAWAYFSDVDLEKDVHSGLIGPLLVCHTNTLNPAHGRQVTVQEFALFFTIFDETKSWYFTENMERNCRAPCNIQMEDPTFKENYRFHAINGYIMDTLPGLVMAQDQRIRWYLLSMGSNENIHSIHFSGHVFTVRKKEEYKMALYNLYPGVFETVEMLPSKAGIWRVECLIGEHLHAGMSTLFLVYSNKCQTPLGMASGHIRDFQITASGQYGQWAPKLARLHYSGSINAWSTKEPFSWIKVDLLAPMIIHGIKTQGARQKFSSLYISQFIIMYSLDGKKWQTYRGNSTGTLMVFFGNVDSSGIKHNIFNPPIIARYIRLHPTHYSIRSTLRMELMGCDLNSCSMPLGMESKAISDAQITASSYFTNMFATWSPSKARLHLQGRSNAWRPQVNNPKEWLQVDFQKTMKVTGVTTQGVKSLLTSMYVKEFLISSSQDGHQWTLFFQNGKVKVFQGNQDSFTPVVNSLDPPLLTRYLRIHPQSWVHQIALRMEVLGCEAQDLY
Experimental: For these experiments, nhfVIII was obtained from American Diagnostica, Inc. (Greenwich, Conn.; product #408 nat) in the form of a lyophilized powder containing stabilizing agents. The nhfVIII was reconstituted according to the manufacturer's instructions in a reconstituting buffer (72 mM NH4OAc, pH 6.3, 360 mM NaCl, 0.04% Tween 80 (Buffer 1).
A commercial ELISA kit (IMUBIND fVIII ELISA kit, Product #884, American, Inc., Greenwich, Conn.) developed to detect factor VIII was used according to the manufacturer's specifications in order to detect both the REFACTO® and the nhfVIII targets. The kit employs a sandwich ELISA assay in which the target is captured by an immobilized monoclonal antibody and the captured target is detected with a second monoclonal antibody-horseradish peroxidase (HRP) conjugate. Addition of the peroxidase substrate and its subsequent reaction with the HRP produces a blue color (detected at 630 nm) which changes to yellow (detected at 450 nm) on addition of the 0.5N sulfuric acid stop solution. Color response is calibrated with factor VIII standards provided by the manufacturer.
Following the pH 2 washes, the beads were washed once in PBS containing 0.05% azide and stored at 4° C.
A sample of nhfVIII was diluted to a final concentration of 100 U/ml by addition of 2.32 ml H2O, 180 μl 1M NH4OAc, pH 6.3 (to 72 mM), and 1 μl Tween 80 (to 0.04%). REFACTO® stock solution was diluted to 100 U/ml in a modified Buffer 1, in which the NaCl concentration was reduced from […] to 330 mM.
Immobilized peptides were tested for binding to nhFVIII in comparison with REFACTO®. […] Next, nhfVIII and REFACTO® solutions were mixed with regenerated affinity beads bearing the CS-454, CS-456, and CS-458 ligands in a comparative batch purification procedure.

Row | Substance | binding and release of nhfVIII compared with a factor VIII-like polypeptide (in words)
1 | AEGTGDFCWVFAFDHCHDPGPEGGGS-NHNH2 (disulfide 8-16 (inferred)) [CS-458] | bind and release nhfVIII under similar conditions and with similar yields
2 | AEGTGDHLCGAWFRPCDADPGPEGGGS-NHNH2 (disulfide 9-16 (inferred)) [CS-454] | bind and release nhfVIII under similar conditions and with similar yields
3 | AEGTGDFGCSWLFPCPFDPGPEGGGS-NHNH2 (disulfide 9-15 (inferred)) [CS-456] | bind and release nhfVIII under similar conditions and with similar yields
